Measurements: the supplement of paper PMC7125110
± gives the standard error. Fewer inactive variants are shown than the library holds.

B1: glmS ribozyme (parent)
chain: AUAAAAGCGCCAGAACUACAGAAAUGUAGUUGACGAGGAGGAGGUUUAUCGAAUUUUCGGCGGAUGCCUCCAAA

What was measured:
Conditions in all cases: with glucosamine-6-phosphate
glucosamine-6-phosphate [1] = variants of: B1; assay: self-cleavage kobs at 640 uM GlcN6P; higher = faster cleavage; RNA array
How it was run: (§1)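 Sequenced MiSeq chips were the platform: E. coli RNA polymerase transcribed barcoded ribozyme variants on them in situ, and a hybridised Cy3 probe tracked these at 37 °C. After glucosamine-6-phosphate (40 μM to 10 mM) in HEPES/KCl/Mg(OAc)2 buffer was flowed in, tiles were imaged over ~14 h. Signals normalised to baseline and to non-cleaving reference variants were reduced to per-tile medians and fit to one- or two-exponential decays to obtain kobs. kcat and KM were derived through weighted Michaelis–Menten fits across concentrations.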

glucosamine-6-phosphate [2] = variants of: B1; assay: self-cleavage kobs at 2500 uM GlcN6P; higher = faster cleavage; RNA array
How it was run: as §1

glucosamine-6-phosphate [3] = variants of: B1; assay: self-cleavage kobs at 10000 uM GlcN6P; higher = faster cleavage; RNA array
How it was run: as §1

| Variant | self-cleavage kobs at 640 uM GlcN6P (glucosamine-6-phosphate [1]) [s⁻¹] | self-cleavage kobs at 2500 uM GlcN6P (glucosamine-6-phosphate [2]) [s⁻¹] | self-cleavage kobs at 10000 uM GlcN6P (glucosamine-6-phosphate [3]) [s⁻¹] |
| --- | --- | --- | --- |
| AUAAAAGCGCCAGAACUACAGAAAUGUAGUUGACGUGGAGGAGGUUUAUCGAUUUUUCGGCGGAAGCCUCCAAA | < 1e-05 | < 1e-05 | – |
| AUAAAAGCGCCAGAACUACAGAAAUGUAGUUGACGCGGAGGAGGUUUAUCGAAUUUUCGCCGGAUGCCUCCAAA | < 1e-05 | – | – |
| AUAAAAGCGCCAGAACUACAGAAAUGUAGUUGACGAAGAUGAGGUUUAUCGAAUGUUCGGCGGAUGCCUCCAAA | 6.13e-05 ± 2.5e-05 | 6.99e-05 ± 1.6e-05 | – |
| AUAAAAGCGCCAGAACUACAGAAAUGUAGUUGACUAGUAGGAGGUUUAUCGAAUUUUCGGCGGAUGACUCCAAA | < 1e-05 | – | – |
| AUAAAAGCGCCAGAACUACAGAAAUGUAGUUGACGGGGAGGAGGAUUACCGAAUUUUCGGCGGAUGCCUCCAAA | < 1e-05 | < 1e-05 | – |
| AUAAAAGCGCCAGAACUACAGAAAUGUAGUUGACUAGGAGGAGGUUUAUCGAAUUUUCGGCGGAUGACCCCAAA | < 1e-05 | – | – |
| AUAAAAGCGCCAGAACUACAGAAAUGUAGUUGACGAAGAGGAGGUUUCUCGAAUGUUCGGCGGAUGCCUCCAAA | < 1e-05 | – | – |
| AUAAAAGCGCCAGAACUACAGAAAUGUAGUUGACUAGGAGGAGUUUUAUCGAAUUUUCGGCGGAUGCAUCCAAA | < 1e-05 | < 1e-05 | – |
| AUAAAAGCGCCAGAACUACAGAAAUGUAGUUGACGUGGUGGAGGUUUAUCGAAUUUUCGGCGGAUGCCUCUAAA | < 1e-05 | – | – |
| AUAAAAGCGCCAGAACUACAGAAAUGUAGUUGACGCGGCGGAGGUUUAUCGUAUUUUCGGCGGAUGCCUCCAAA | < 1e-05 | – | – |
| AUAAAAGCGCCAGAACUACAGAAAUGUAGUUGACGAAGAGGAGGUUUAUCGAAUUUUCGGCGGGUGGCUCCAAA | < 1e-05 | – | – |
| AUAAAAGCGCCAGAACUACAGAAAUGUAGUUGACGGGGAGGAGGUUAAUCGAAUUUUCGGCGGAUGCCUCCAAA | < 1e-05 | – | – |
| AUAAAAGCGCCAGAACUACAGAAAUGUAGUUGACUAGGGGGAAGUUUAUCGAAUUUUCGGCGGAUGCCUCCAAA | < 1e-05 | < 1e-05 | – |
| AUAAAAGCGCCAGAACUACAGAAAUGUAGUUGACGCGGAGGAGGUUUAUCAAAUUUUCGGCGGAUGCCUGCAAA | 9.36e-05 ± 3.3e-05 | – | – |
| AUAAAAGCGCCAGAACUACAGAAAUGUAGUUGACGCAGAGGAGGUUUAUCGAAUUUUCGGCGGCUACCUCCAAA | < 1e-05 | – | – |
| AUAAAAGCGCCAGAACUACAGAAAUGUAGUUGACGGGGAGAAGGUUUAUCGAAUUUUCGGGGGAUGCCUCUAAA | < 1e-05 | < 1e-05 | – |
| AUAAAAGCGCCAGAACUACAGAAAUGUAGUUGACGCGGAGGAGGUUUAUCUAAUUUUCGGCGGAUGCCUGCAAA | 0.000181 ± 5.1e-05 | 4.65e-05 ± 1.9e-05 | – |
| AUAAAAGCGCCAGAACUACAGAAAUGUAGUUGACUAGGAGGAGGUUUCUCGAAUUUUCGGCGGAUGCAUCCAAA | < 1e-05 | – | – |
| AUAAAAGCGCCAGAACUACAGAAAUGUAGUUGACGCGGAGGUGGUUUAUCGGAUUUUCGGCGGAUGCCUUCAAA | < 1e-05 | – | – |
| AUAAAAGCGCCAGAACUACAGAAAUGUAGUUGACGCGGCGGAGGUUUAUCGAGUUUUCGGCGGAUGCCUCCAAA | < 1e-05 | < 1e-05 | – |
| AUAAAAGCGCCAGAACUACAGAAAUGUAGUUGACGAAGAGGAGGUUUUUCGAACUUUCGGCGGAUGCCUCCAAA | < 1e-05 | – | – |
| AUAAAAGCGCCAGAACUACAGAAAUGUAGUUGACGGGGUGGAAGGUUAUCGAAUUUUCAGCGGAUGCCUCCAAA | < 1e-05 | – | – |
| AUAAAAGCGCCAGAACUACAGAAAUGUAGUUGACGUGGAUGAGGUUUAUCGAAUUUUCGUCGGAUGCCUCCAAA | < 1e-05 | < 1e-05 | – |
| AUAAAAGCGCCAGAACUACAGAAAUGUAGUUGACGUGGAGGAGGAUUAUCGAAUUUUCGGCGUAUGCCUCCAAA | < 1e-05 | < 1e-05 | – |

| Variant | self-cleavage kobs at 640 uM GlcN6P (glucosamine-6-phosphate [1]) [s⁻¹] | self-cleavage kobs at 2500 uM GlcN6P (glucosamine-6-phosphate [2]) [s⁻¹] | self-cleavage kobs at 10000 uM GlcN6P (glucosamine-6-phosphate [3]) [s⁻¹] |
| --- | --- | --- | --- |
| AUAAAAGCGCCAGAACUACAGAAAUGUAGUUGACGCGGAGGUGCUUUAUCGUAUUUUCGGCGGAUGCCUCCAAA | < 1e-05 | – | – |
| AUAAAAGCGCCAGAACUACAGAAAUGUAGUUGACUAGGAGGGGGUUUAUCGAAUAUUCGGCGGAUGCCUCCAAA | < 1e-05 | – | – |
| AUAAAAGCGCCAGAACUACAGAAAUGUAGUUGACGGGGAGCAGGUUUAUCGAAUUUUCGGCGGAUGCCUCCAAA | < 1e-05 | – | < 1e-05 |
| AUAAAAGCGCCAGAACUACAGAAAUGUAGUUGACGCAGAGGAUGUUUAUCGAAUUUUCGGGGGAUGACUCCAAA | < 1e-05 | < 1e-05 | – |
| AUAAAAGCGCCAGAACUACAGAAAUGUAGUUGACGAAGAGGAUGUUUAUCGAAUUUUCGGCUGAUCACUCCAAA | < 1e-05 | < 1e-05 | < 1e-05 |
| AUAAAAGCGCCAGAACUACAGAAAUGUAGUUGACUAGGAGGUGGUUUAUCGAAUUUUCGGCGCAUGCCUCCAAA | < 1e-05 | – | – |
| AUAAAAGCGCCAGAACUACAGAAAUGUAGUUGACGAAGAGGAGGUUUAUCGAAUUUUCGGCGGGUGCCUCUAAA | 3.85e-05 ± 1.7e-05 | – | – |
| AUAAAAGCGCCAGAACUACAGAAAUGUAGUUGACGUGGGGGAGGUUUAUCGAAUUUUCGGCGGAUGCCUCCAAA | < 1e-05 | – | – |
| AUAAAAGCGCCAGAACUACAGAAAUGUAGUUGACGGGGAGGAGGUUUAUCGAAUUUUAUGCGGAUGCCUUCAAA | < 1e-05 | < 1e-05 | – |
| AUAAAAGCGCCAGAACUACAGAAAUGUAGUUGACGCGGAGGAGGUUUAGCGAAUUUUCGGCGAAUGCCUCCAAA | < 1e-05 | < 1e-05 | – |
| AUAAAAGCGCCAGAACUACAGAAAUGUAGUUGACGGGGAUGAGGUUUAUCGUAUUUUCGGCGGACGCCUCCAAA | < 1e-05 | – | – |
| AUAAAAGCGCCAGAACUACAGAAAUGUAGUUGACUAGGAAGAGGUUUAUCGUAUUUUCGGCGGAUGCCUCCAAA | < 1e-05 | < 1e-05 | – |
| AUAAAAGCGCCAGAACUACAGAAAUGUAGUUGACGUGGAGGAUGUUUAUCGAAUUUUCGGCGGAAGCCUCCAAA | < 1e-05 | < 1e-05 | – |
| AUAAAAGCGCCAGAACUACAGAAAUGUAGUUGACUAGGUGGAGGGCUAUCGAAUUUUCGGCGGAUGCCUCCAAA | < 1e-05 | < 1e-05 | – |
| AUAAAAGCGCCAGAACUACAGAAAUGUAGUUGACGAAGAGGGGGUUUAUCGAAUUUUCGGCGGAUGCCUCGAAA | 8.96e-05 ± 2.4e-05 | 5.5e-05 ± 1.6e-05 | 8.16e-05 ± 2.3e-05 |
| AUAAAAGCGCCAGAACUACAGAAAUGUAGUUGACGCGGAGAAGGGUUAUCGUAUUUUCGGCGGAUGCCUCCAAA | < 1e-05 | – | – |
| AUAAAAGCGCCAGAACUACAGAAAUGUAGUUGACGCGGAGGAGGUUUAUCAAAUUUUCGGCGGAUGCCUCGAAA | 6.03e-05 ± 2.2e-05 | – | – |
| AUAAAAGCGCCAGAACUACAGAAAUGUAGUUGACGCGCAGGAUGUUUAUCGAAGUCUCGGCGGAUGCCUCCAAA | < 1e-05 | – | – |
| AUAAAAGCGCCAGAACUACAGAAAUGUAGUUGACGGGGAGGAGGUUUAUCGAAUUUUCGGCGGAUUCCUCCAAA | < 1e-05 | < 1e-05 | < 1e-05 |
| AUAAAAGCGCCAGAACUACAGAAAUGUAGUUGACUAGGAGGAGGUUUAUCGAAUUUUUGGCGGUUGCAUCCAAA | < 1e-05 | – | – |
| AUAAAAGCGCCAGAACUACAGAAAUGUAGUUGACCAGGAGGAGGUUUAUCGAAGUUUCGGCGGAUGCCUCCAAA | < 1e-05 | < 1e-05 | – |
| AUAAAAGCGCCAGAACUACAGAAAUGUAGUUGACGAAGAGGAGGCUUAUCGAAUUUUCGGCGGAUGCCUCCAAA | 5.03e-05 ± 1.6e-05 | 6.95e-05 ± 1.3e-05 | 0.000173 ± 4.9e-05 |
| AUAAAAGCGCCAGAACUACAGAAAUGUAGUUGACGUGGAGGCGGUUAAUCGAAUUUUCGGCGGAUGCCUCCAAA | < 1e-05 | < 1e-05 | – |
